Experimental data published in paper PMC9317729.

Biological target: S-RBD-Rhizavidin fusion protein (SARS-CoV-2 | not stated) (UniProt P0DTC2)
Experiment: SEC-MALS; HPLC-SEC on AdvanceBio SEC 1.9 μm column, 0.4 mL/min, 20 mM HEPES, 100 mM sodium chloride, 25 °C; about 20 micrograms injected; MALS with first order Zimm fit

Substance “S-RBD-Rhizavidin fusion protein (from UniProt P0DTC2 331-524)” has a stoichiometry N of 2.
